Test results as given in patent US8623366B2, “Methods for treating visceral pain by administering antagonist antibodies directed against calcitonin gene-related peptide” (Labrys Biologics, Inc., priority 2009, dated 2014).
Positions count from the first letter of the chain named. Names and notes keep the numbering of the source. Read-outs that look alike come from different tables or passages of the source.

How the values were obtained:
TNBS treated rats = assay: Rat TNBS colitis visceral pain model, balloon distension of the colon; type: in vivo; details: intravenous, FIG. 1A and 1B
Description: Colorectal distension after TNBS-induced colitis in rats is an animal model that has been used by many researchers to explore the mechanisms of visceral hypersensitivity (Gay et al, 2006, Delafoy et al, 2006, Adam et al., 2006). In this Example, the rat TNBS colitis model was used to test the effect of a function-blocking antibody for CGRP. In the model, as in the human IBS studies, the visceral pain threshold is measured by response to balloon distension of the colon.
After overnight fasting, rats were anesthetized with ketamine (80 mg/ml)/xylazine (12 mg/ml) at a dosage of 1 ml/kg. An abdominal laparotomy was performed and a TNBS solution (50 mg at 1.5 ml/kg in 30% ethanol, “TNBS treatment group”) or 30% ethanol solution (“sham group”) was injected into the proximal colon 1 cm distal from ceacum. The sham group was used as a non-colitis control. […]
The seventh day following surgery, after a second overnight fast, TNBS treated rats sustaining a weight loss of no greater than 11% were tested for visceral pain threshold with balloon distension. […] Balloon distension was halted at the threshold pressure required to elicit a stereotypical rodent visceral pain posture known as the alpha position (repeated waves of contraction of oblique musculature with inward turning of the hindpaw) and this was recorded as the visceral pain threshold.

[1] = system: visceral hypersensitivity (VH); details: systemically injected; Delafoy 2006, Plourde 1997, Julia and Bueno 1997; cited from earlier work
[2] = cited from earlier work
human α-CGRP [3] = target: T1, human α-CGRP (Homo sapiens, UniProt P06881); assay: Biacore interaction analysis of Fab fragments, N-biotin α-human/cyno CGRP on chip; type: binding
T1 sequence (P06881 83-119 limits assumed): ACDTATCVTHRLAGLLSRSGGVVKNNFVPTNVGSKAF
Description: (§1) Interaction analysis was conducted at 25° C. and at 37° C. on a Biacore 3000™ system equipped with streptavidin-coated (SA) sensor chips (Biacore AB, Uppsala, Sweden) using standard Biacore running buffers (HBS-P or HBS-EP). N-LC-biotinylated human and rat α- and β-CGRPs were captured on individual flow cells at low levels (typically 100 response units) to provide the reaction surfaces, while an unmodified flow cell served as a reference channel. Purified Fab fragments of antibodies G1 and G2 were generated. Typically, Fabs were prepared as a two-fold serial dilution using 0.5 μM as the top concentration and injected for 1-min at 100 μl/min allowing up to two hours for the dissociation time. Surfaces were regenerated with a mixture of 50% v/v ethanol+25 mM NaOH for G1 Fab and 2:1 v/v Pierce Gentle Elution Buffer/4M NaCl for G2 Fab. […] The binding responses were double-referenced and fit globally to a simple model using BiaEvaluation v. 4.0 software. Affinities were deduced from the quotient of the kinetic rate constants (KD=koff/kon).
(§2) As such, the offrate (koff) cannot be measured accurately unless the dissociation phase is monitored for a very long time. As a general rule-of-thumb, the binding response decays at least 5% over the allowed dissociation time for the report of an accurate offrate. However, monitoring long dissociation times on the Biacore is hindered by baseline drift, which is particularly challenging when working at the low surface capacities required for kinetic analyses. In this study, the dissociation phase was followed for two hours over the α-CGRPs but only 20 mins over the β-CGRPs. As a result, the offrates for β-CGRPs cannot be resolved as accurately as those for α-CGRPs.

human β-CGRP = target: T2, human β-CGRP (Homo sapiens, UniProt P10092); assay: Biacore interaction analysis of Fab fragments, N-biotin β-human/cyno CGRP on chip; type: binding
T2 construct: and
T2 sequence (P10092 82-118 limits assumed): T1 sequence (P06881 83-119 limits assumed) with D3N, V22M, N25S
Description: as §1, §2

rat α-CGRP = target: T3, rat α-CGRP (Rattus norvegicus, UniProt P01256); assay: Biacore interaction analysis of Fab fragments, N-biotin α-rat CGRP on chip; type: binding
T3 sequence (P01256 83-119 limits assumed): T1 sequence (P06881 83-119 limits assumed) with A1S, D3N, N25D, K35E
Description: as §1, §2

rat β-CGRP = target: T4, rat β-CGRP (Rattus norvegicus, UniProt P10093, R105S); assay: Biacore interaction analysis of Fab fragments, N-biotin β-rat CGRP on chip; type: binding
T4 sequence (P10093 89-125 R105S limits assumed): T1 sequence (P06881 83-119 limits assumed) with A1S, D3N, N25D
Description: as §1, §2
The results for antibody G2 are expressed in Table 2.

[4] = target: T5, human α-CGRP binding to the CGRP1-receptor (Homo sapiens, UniProt P06881); assay: Binding assay: blocking 125I-human α-CGRP from binding to CGRP1-receptor on SK-N-MC cell membranes; details: IC50 higher than Biacore KD at equivalent temperature
T5 construct: host or cells: receptor: endogenous, membranes of SK-N-MC cells
T5 sequence (P06881 83-119 limits assumed): T1 sequence (P06881 83-119 limits assumed)
Description: A binding assay was performed to measure the IC50 of anti-CGRP G1 antibody in blocking human α-CGRP from binding to the CGRP1-receptor. […] Incubation was terminated by filtration through a glass microfiber filter (GF/B, 1 μm) which had been blocked with 0.5% polyethylenimine. The protein-bound radioactivity was determined in a gamma counter.

α-rat CGRP = target: T6, α-rat CGRP (Rattus norvegicus, UniProt P01256); details: Table 6 reproduced from WO2007/054809; cited from earlier work
T6 sequence (P01256 83-119 limits assumed): T1 sequence (P06881 83-119 limits assumed) with A1S, D3N, N25D, K35E

human α-CGRP [5] = target: T1, human α-CGRP; details: Table 6 reproduced from WO2007/054809; cited from earlier work
[6] = β-human/cyno CGRP, 37° C., 20 min dissociation
[7] = β-rat CGRP, 37° C., Fab, 20 min dissociation

For CGRP 8-37: a CGRP receptor antagonist, the “effect on visceral pain threshold, 4901 compared with CGRP 8-37” value (TNBS treated rats) is listed as “comparable”, the “reversing visceral hypersensitivity (VH)” value [1] is listed as “effective in reversing visceral hypersensitivity (VH)” and the half-life in-vivo [2] is listed as “very short half-life in-vivo”.

With “G1: anti-CGRP antagonist antibody produced by expression vectors ATCC PTA-6867 and PTA-6866; VH SEQ ID NO: 1, VL SEQ ID NO: 2 [Clone G1]” the “koff” value (human α-CGRP [3]; 25° C.) was 7.8e-06 s⁻¹, the “kon” value (human α-CGRP [3]; 25° C.) was 186000 M⁻¹ s⁻¹ and the “koff” value (human α-CGRP [3]; 37° C.) was 3.63e-05 s⁻¹. The “kon” value (human α-CGRP [3]; 37° C.) was 587000 M⁻¹ s⁻¹, the “koff” value (human β-CGRP; [6]) was under 6.98e-05 s⁻¹ and the “kon” value (human β-CGRP; [6]) was 451000 M⁻¹ s⁻¹. For the same molecule, the “koff” value (rat α-CGRP; 25° C.) was 6.18e-05 s⁻¹, the “kon” value (rat α-CGRP; 25° C.) was 50800 M⁻¹ s⁻¹ and the “koff” value (rat α-CGRP; 37° C.) was 0.000399 s⁻¹. The “kon” value (rat α-CGRP; 37° C.) was 155000 M⁻¹ s⁻¹, the “koff” value (rat β-CGRP; [7]) was under 7.85e-05 s⁻¹ and the “kon” value (rat β-CGRP; [7]) was 516000 M⁻¹ s⁻¹. For the same molecule, the “IC50 relative to KD observed by Biacore” value [4] was 23 fold, the “α-rat koff” value (α-rat CGRP) was 0.000399 s⁻¹ and the “α-human koff” value (human α-CGRP [5]) was 3.63e-05 s⁻¹.

B1: M24: G1 variant: L1 R28L; HC-FW3 L99T A100V (antibody, chains of the INN, looked up, variant L:R28L H:L99T H:A100V, V domains shown)
VH: EVQLVESGGGLVQPGGSLRLSCAASGFTFSNYWISWVRQAPGKGLEWVAEIRSESDASATHYAEAVKGRFTISRDNAKNSLYLQMNSLRAEDTAVYYCTVYFDYGLAIQNYWGQGTLVTVSS
VL: EIVLTQSPATLSLSPGERATLSCKASKLVTTYVSWYQQKPGQAPRLLIYGASNRYLGIPARFSGSGSGTDFTLTISSLEPEDFAVYYCSQSYNYPYTFGQGTKLEIK
In the case of B1, the Kd (α-rat CGRP) is listed as 57.8 nM and the Kd (human α-CGRP [5]) is listed as 0.93 nM.

B2: M38: G1 variant: L1 R28N T30W; HC-FW3 L99T A100V (antibody, chains of the INN, looked up, variant L:R28N L:T30W H:L99T H:A100V, V domains shown)
VH: B1 VH
VL: B1 VL with L28N, T30W
For B2, the Kd (α-rat CGRP) is listed as 284 nM and the Kd (human α-CGRP [5]) is listed as 1.36 nM.

B3: M31: G1 variant: L1 R28N T30G; H2 E54K A57G; HC-FW3 L99T A100V (antibody, chains of the INN, looked up, variant L:R28N L:T30G H:E54K H:A57G H:L99T H:A100V, V domains shown)
VH: B1 VH with E54K, A57G
VL: B1 VL with L28N, T30G
For B3, the Kd (α-rat CGRP) is given as 201 nM and the Kd (human α-CGRP [5]) is given as 2.17 nM.

B4: M37: G1 variant: L1 R28N T30S; H2 A57G; HC-FW3 L99T A100V (antibody, chains of the INN, looked up, variant L:R28N L:T30S H:A57G H:L99T H:A100V, V domains shown)
VH: B1 VH with A57G
VL: B1 VL with L28N, T30S
In the case of B4, the Kd (α-rat CGRP) is given as 80.6 nM and the Kd (human α-CGRP [5]) is given as 1.41 nM.

B5: M26: G1 variant: L1 R28N; H2 A57G; HC-FW3 L99T A100V (antibody, chains of the INN, looked up, variant L:R28N H:A57G H:L99T H:A100V, V domains shown)
VH: B1 VH with A57G
VL: B1 VL with L28N
For B5, the Kd (α-rat CGRP) is given as 51.3 nM and the Kd (human α-CGRP [5]) is given as 0.93 nM.

B6: M27: G1 variant: L1 R28N T30A; HC-FW3 L99T A100V (antibody, chains of the INN, looked up, variant L:R28N L:T30A H:L99T H:A100V, V domains shown)
VH: B1 VH
VL: B1 VL with L28N, T30A
In the case of B6, the Kd (α-rat CGRP) is listed as 189 nM and the Kd (human α-CGRP [5]) is listed as 2.23 nM.

B7: M28: G1 variant: L1 R28N T30D; H2 E54R A57N; HC-FW3 L99T A100V (antibody, chains of the INN, looked up, variant L:R28N L:T30D H:E54R H:A57N H:L99T H:A100V, V domains shown)
VH: B1 VH with E54R, A57N
VL: B1 VL with L28N, T30D
In the case of B7, the Kd (α-rat CGRP) is listed as 69.4 nM and the Kd (human α-CGRP [5]) is listed as 0.62 nM.

B8: G2: anti-rat CGRP mouse monoclonal antibody as described in Wong H C et al. Hybridoma 12:93-106, 1993; VH SEQ ID NO: 19, VL SEQ ID NO: 20 (antibody, V domains shown)
VH: EVQLQQSGPELVKPGASVKMSCKASGYTFTSSVMHWVKQKPGQGLEWIGYINPYNDGTKYNEKFKGKATLTSDKSSSTAYMELSSLTSEDSAVYYCAKGGNDGYWGQGTTLTVSS
VL: EIVLTQSPTTMAASPGEKITITCSASSSISSIYLHWYQQKPGFSPKVLIYRASNLASGVPARFSGSGSGTSYSLTIGTMEAEDVATYYCQQGSTIPFTFGSGTKLEIK
modifications: Synthetic polypeptide, Antibody G2 heavy chain variable region; Synthetic polypeptide, Antibody G2 light chain variable region
For B8, the Kd (human α-CGRP [3]; 25° C.) was 19 nM, the “koff” value (human α-CGRP [3]; 25° C.) was 0.00115 s⁻¹ and the “kon” value (human α-CGRP [3]; 25° C.) was 60300 M⁻¹ s⁻¹. The “koff” value (human α-CGRP [3]; 37° C.) was 0.0039 s⁻¹, the “kon” value (human α-CGRP [3]; 37° C.) was 93000 M⁻¹ s⁻¹ and the Kd (human β-CGRP; β-human CGRP, 25° C.) was 20 nM. For the same molecule, the “koff” value (human β-CGRP; β-human CGRP, 25° C.) was 0.00162 s⁻¹, the “kon” value (human β-CGRP; β-human CGRP, 25° C.) was 81400 M⁻¹ s⁻¹ and the “koff” value (rat α-CGRP; 25° C.) was 0.000214 s⁻¹. For the same molecule, the “kon” value (rat α-CGRP; 25° C.) was 231000 M⁻¹ s⁻¹, the “koff” value (rat α-CGRP; 37° C.) was 0.0017 s⁻¹ and the “kon” value (rat α-CGRP; 37° C.) was 500000 M⁻¹ s⁻¹. For the same molecule, the “binding characteristics to β-rat CGRP” value (rat β-CGRP; reverse orientation assay format (data not shown)) was “comparable binding characteristics to α- and β-human CGRPs”.
